Data from the nanobody polyreactivity screen of Harvey et al. (2022).

Assay: yeast display, Sf9 membrane polyspecificity reagent, FACS + sequencing; frameworks hold sequencing errors
How it was run: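 Galactose-induced (36–48 hours) yeast carrying a synthetic nanobody display library were exposed to 10% biotinylated, detergent-solubilized Sf9 membrane reagent at 4 °C for 1 hour. FACS followed streptavidin microbead enrichment, using low and high (top ~1%) gates for expression (anti-HA) and reagent binding (streptavidin). Colony PCR, MiSeq 2 × 250 sequencing and CDR-length filtering followed. Labels for polyreactivity reflect the gate of origin.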
With “QVQLVASAGGLVQAGRSLRLSCAASGRIFSWYTMGWYRQAPGKERELVADITYSGGSTYYADSVKGRFTISRDNAKNTVYLQMNSLKPEDTAVVYCIADPRWYHFEYGYWGQGTQVTVSS” the “polyreactivity (PSR sort gate)” value was “high polyreactivity”. For “QVQLVASGGGLVQAGGSLRLSCAASGLIFYIYMGWYRQGPGKERELVAVISSSGNSTYYADSVKGRFTISRDNAKNTVYLQMNSLKQEDTAVSYCNASAYYPPSSSRYDYWGQGTQVTVSS”, the “polyreactivity (PSR sort gate)” value was “low polyreactivity”. In the case of “QVQLVASGGGLVQAGGSLRLSCSASGSIFKYYAMGWYRQAPGKERELVAAISSSGNTYYADSVKGRFTISRDNAKNTVYLQMNSLKPEDTAVYYCAAGIRRYRTYDYWGQGTQVTVSS”, the “polyreactivity (PSR sort gate)” value is reported as “high polyreactivity”. In the case of “QVQLVDSGAGLVQAGGSLRLICAASGSIFPYYAMGWYRQAPGKERELVAGISNGDSTNYADSVKGRFTISGDNAKNTVYLQINSLKPEDTAVYYCSTVLPGGRYYGPYDFWGQGTQVTVSS”, the “polyreactivity (PSR sort gate)” value is reported as “low polyreactivity”. In the case of “QVQLVDSGAGLVQAGGSLRLSCAASGRIFYSYAMGWYRQAPGKDRELVARITRGSSTYYADSVKGRFTISRDNAKNTVYLQMNSLKPEDTAVYYCAKSRYTALTNHWSHDYWGQVTQVTVSS”, the “polyreactivity (PSR sort gate)” value is reported as “low polyreactivity”. With “QVQLVDSGAGLVQAGGSLRLSCAASGRISYVYAMGWYRQAPGKDRELVAGITWSDGSTFYADSVKGSFTISRDNAKNTVYLQMNSLKPEDTAVYYCAARFNRKILGRYYFWGQGTQVTVSS” the “polyreactivity (PSR sort gate)” value was “high polyreactivity”. For “QVQLVDSGAGLVQAGGSLRLSCAASGSIYYRYALGWYRQAPRQVRELVAAITQSTDSTYYADSVKGRFTISRDNAKNTVYLQMNSLKPEDTAVYYCAAYLVYYRPYAYGYWGQGTQVTVSS”, the “polyreactivity (PSR sort gate)” value was “low polyreactivity”. With “QVQLVDSGGALVQAGGSLRLICAASGSTFIINAMGWYRQAPGKDRELVAAISGRGTRTYYADSVKGRFTISRDNAKNSVYLQMKSLKPEDTAVYYCNAVRSLSFTTEHDYWGQGTQVTVSS” the “polyreactivity (PSR sort gate)” value was “high polyreactivity”. With “QVQLVDSGGALVQAGGSLRLSCAASGSTFAYYAMGWYRQAPGKERELVAAITASATNTYYADSVKGRFTISRDNAKNTVYLQMNSLKPEDTAVYYCAADDVDVEHQASWDDYDSWGQGTQVTVSS” the “polyreactivity (PSR sort gate)” value was “low polyreactivity”. For “QVQLVDSGGALVQAGGSLRLSCAASGSTFVVNAIGWYRQAPGKERELVAAIAGGGSTNYADSVKGRFTISRDNAKNTVYLQMNSLKPEDTAVYYCAVDGVEFSSYGYWGQGTQVTVSS”, the “polyreactivity (PSR sort gate)” value was “low polyreactivity”. With “QVQLVDSGGGIVQAGGSLRLSCAASGLTFSDYAMGWYRQAPGKEREFVAAITRNGGSTRYADSVKGRFTISRDNAKNTVYLQMNSLKPEDTAVDYCATDVGFGSKQRPHRPGYGYWGQGTQVTVSS” the “polyreactivity (PSR sort gate)” value was “low polyreactivity”. In the case of “QVQLVDSGGGIVQAGGSLRLSCAASGSTLKYNAMGWYRQAPGKERELVAAISTSGGNTYYADSVKGRFTISRDNAKNTVYLQMNSLKPEDTAVYYCAKVLGYYYYDYDSWGQGTQVTVSS”, the “polyreactivity (PSR sort gate)” value is reported as “low polyreactivity”. For “QVQLVDSGGGIVQAGGSLRLSCAASGTFDAYAMGWYRQEPGKERELVASISSSGGSTYYADSVKGRFTITRDNAKNTVYLQMYSLNPEDRAVYYCAATDFWYSGYYWGKGTQVTVSS”, the “polyreactivity (PSR sort gate)” value was “low polyreactivity”. In the case of “QVQLVDSGGGKVQAGGSLRLSCAASGRTFLVYAMGWYRQAPGKERELVAAISRSGGRTSYADSVKGRFTISRDNAKNTVYLQMNSLKPEDTAVYYCAASGPPCDMDYWGQGTQVTVSS”, the “polyreactivity (PSR sort gate)” value is reported as “high polyreactivity”. In the case of “QVQLVDSGGGLFQAGGSLRLSCAASGSTFYRYAKGWYRQAPGKERELVATITNSGGSTYYADSVKGRFTISRDNAKNTVYLPRNSLKPEDTAVYYCAAVGGRLRGDRGGYWGQGSQVTVSS”, the “polyreactivity (PSR sort gate)” value is reported as “high polyreactivity”. In the case of “QVQLVDSGGGLVQAAGSLRLSCAASGSTFVTYAMGGYRTAPGKERELVAAISSGAGTNYADSVKGRFTISRDNAKNTVYLQMNSLKPEDTAVDYCAADKAVGDSTRYYYWGQGTQVTVSS”, the “polyreactivity (PSR sort gate)” value is reported as “low polyreactivity”. In the case of “QVQLVDSGGGLVQAGASLRLSCAASGIIFTGYAKGWYRQAPGKERDLVAAISGIGTSTYYADSVKGRFTISRDNAKNTVYLQMNSLKPEDTAVYYCAARYVSRRFLGYYYWGQGTQVTVSS”, the “polyreactivity (PSR sort gate)” value is reported as “high polyreactivity”.
